B1: Medium-chain specific acyl-CoA dehydrogenase, mitochondrial: potential cIAP1 substrate (protein, UniProt P11310 26-421, looked up)
Medium-chain specific …: KANRQREPGLGFSFEFTEQQKEFQATARKFAREEIIPVAAEYDKTGEYPVPLIRRAWELGLMNTHIPENCGGLGLGTFDACLISEELAYGCTGVQTAIEGNSLGQMPIIIAGNDQQKKKYLGRMTEEPLMCAYCVTEPGAGSDVAGIKTKAEKKGDEYIINGQKMWITNGGKANWYFLLARSDPDPKAPANKAFTGFIVEADTPGIQIGRKELNMGQRCSDTRGIVFEDVKVPKENVLIGDGAGFKVAMGAFDKTRPVVAAGAVGLAQRALDEATKYALERKTFGKLLVEHQAISFMLAEMAMKVELARMSYQRAAWEVDSGRRNTYYASIAKAFAGDIANQLATDAVQILGGNGFNTEYPVEKLMRDAKIYQIYEGTSQIQRLIVAREHIDKYKN
B2: Putative annexin A2-like protein: potential cIAP1 substrate (protein, UniProt A6NMY6 2-339, looked up)
Putative annexin A2-like …: STVHEILCKLSLEGDHSTPPSAYGSVKAYTNFDAERDALNIETAIKTKGVDEVTIVNIVTNRDNAQRQDIVFSYQRRTKKELASALKSALSGHLETVILGLLKTPAQYDASELKASMKGLGTDEDSLIEIICSRTNQELQEINRVYKEMYKTDLEKDIISDTSGDFRKLMVALAKGRRAEDGSVIDYELIDQDAQDLYDAGVKRKGTDVPKWISIMTERSVPHLQKVFDRYKSYSPYDMLESIRKEVKGDLENAFLNLVQRIQNKPLYFADQLYDSMKGKGTRDKVLIRIMVSRSEVDMLKIRSEFKRKYGKSLYYYIQQDTKGDYQKALLYLCGGDD
B3: Rho GDP-dissociation inhibitor 2: potential cIAP1 substrate (protein, UniProt P52566 2-201, looked up)
Rho GDP-dissociation …: TEKAPEPHVEEDDDDELDSKLNYKPPPQKSLKELQEMDKDDESLIKYKKTLLGDGPVVTDPKAPNVVVTRLTLVCESAPGPITMDLTGDLEALKKETIVLKEGSEYRVKIHFKVNRDIVSGLKYVQHTYRTGVKVDKATFMVGSYGPRPEEYEFLTPVEEAPKGMLARGTYHNKSFFTDDDKQDHLSWEWNLSIKKEWTE
B4: Pre-mRNA-processing factor 19: potential cIAP1 substrate (protein, UniProt Q9UMS4 2-504, looked up)
Pre-mRNA-processing factor 19: SLICSISNEVPEHPCVSPVSNHVYERRLIEKYIAENGTDPINNQPLSEEQLIDIKVAHPIRPKPPSATSIPAILKALQDEWDAVMLHSFTLRQQLQTTRQELSHALYQHDAACRVIARLTKEVTAAREALATLKPQAGLIVPQAVPSSQPSVVGAGEPMDLGELVGMTPEIIQKLQDKATVLTTERKKRGKTVPEELVKPEELSKYRQVASHVGLHSASIPGILALDLCPSDTNKILTGGADKNVVVFDKSSEQILATLKGHTKKVTSVVFHPSQDLVFSASPDATIRIWSVPNASCVQVVRAHESAVTGLSLHATGDYLLSSSDDQYWAFSDIQTGRVLTKVTDETSGCSLTCAQFHPDGLIFGTGTMDSQIKIWDLKERTNVANFPGHSGPITSIAFSENGYYLATAADDSSVKLWDLRKLKNFKTLQLDNNFEVKSLIFDQSGTYLALGGTDVQIYICKQWTEILHFTEHSGLTTGVAFGHHAKFIASTGMDRSLKFYSL
B5: Heterogeneous nuclear ribonucleoprotein A0: potential cIAP1 substrate (protein, UniProt Q13151 1-305, looked up)
Heterogeneous nuclear …: MENSQLCKLFIGGLNVQTSESGLRGHFEAFGTLTDCVVVVNPQTKRSRCFGFVTYSNVEEADAAMAASPHAVDGNTVELKRAVSREDSARPGAHAKVKKLFVGGLKGDVAEGDLIEHFSQFGTVEKAEIIADKQSGKKRGFGFVYFQNHDAADKAAVVKFHPIQGHRVEVKKAVPKEDIYSGGGGGGSRSSRGGRGGRGRGGGRDQNGLSKGGGGGYNSYGGYGGGGGGGYNAYGGGGGGSSYGGSDYGNGFGGFGSYSQHQSSYGPMKSGGGGGGGGSSWGGRSNSGPYRGGYGGGGGYGGSSF
B6: Isocitrate dehydrogenase [NADP], mitochondrial: potential cIAP1 substrate (protein, UniProt P48735 40-452, looked up)
Isocitrate dehydrogenase …: ADKRIKVAKPVVEMDGDEMTRIIWQFIKEKLILPHVDIQLKYFDLGLPNRDQTDDQVTIDSALATQKYSVAVKCATITPDEARVEEFKLKKMWKSPNGTIRNILGGTVFREPIICKNIPRLVPGWTKPITIGRHAHGDQYKATDFVADRAGTFKMVFTPKDGSGVKEWEVYNFPAGGVGMGMYNTDESISGFAHSCFQYAIQKKWPLYMSTKNTILKAYDGRFKDIFQEIFDKHYKTDFDKNKIWYEHRLIDDMVAQVLKSSGGFVWACKNYDGDVQSDILAQGFGSLGLMTSVLVCPDGKTIEAEAAHGTVTRHYREHQKGRPTSTNPIASIFAWTRGLEHRGKLDGNQDLIRFAQMLEKVCVETVESGAMTKDLAGCIHGLSNVKLNEHFLNTTDFLDTIKSNLDRALGRQ
B7: Acetyl-CoA acetyltransferase, mitochondrial: potential cIAP1 substrate (protein, UniProt P24752 34-427, looked up)
Acetyl-CoA acetyltransferase, …: VSKPTLKEVVIVSATRTPIGSFLGSLSLLPATKLGSIAIQGAIEKAGIPKEEVKEAYMGNVLQGGEGQAPTRQAVLGAGLPISTPCTTINKVCASGMKAIMMASQSLMCGHQDVMVAGGMESMSNVPYVMNRGSTPYGGVKLEDLIVKDGLTDVYNKIHMGSCAENTAKKLNIARNEQDAYAINSYTRSKAAWEAGKFGNEVIPVTVTVKGQPDVVVKEDEEYKRVDFSKVPKLKTVFQKENGTVTAANASTLNDGAAALVLMTADAAKRLNVTPLARIVAFADAAVEPIDFPIAPVYAASMVLKDVGLKKEDIAMWEVNEAFSLVVLANIKMLEIDPQKVNINGGAVSLGHPIGMSGARIVGHLTHALKQGEYGLASICNGGGGASAMLIQKL
B8: Elongation factor 1-alpha 1: potential cIAP1 substrate (protein, UniProt P68104 2-462, looked up)
Elongation factor 1-alpha 1: GKEKTHINIVVIGHVDSGKSTTTGHLIYKCGGIDKRTIEKFEKEAAEMGKGSFKYAWVLDKLKAERERGITIDISLWKFETSKYYVTIIDAPGHRDFIKNMITGTSQADCAVLIVAAGVGEFEAGISKNGQTREHALLAYTLGVKQLIVGVNKMDSTEPPYSQKRYEEIVKEVSTYIKKIGYNPDTVAFVPISGWNGDNMLEPSANMPWFKGWKVTRKDGNASGTTLLEALDCILPPTRPTDKPLRLPLQDVYKIGGIGTVPVGRVETGVLKPGMVVTFAPVNVTTEVKSVEMHHEALSEALPGDNVGFNVKNVSVKDVRRGNVAGDSKNDPPMEAAGFTAQVIILNHPGQISAGYAPVLDCHTAHIACKFAELKEKIDRRSGKKLEDGPKFLKSGDAAIVDMVPGKPMCVESFSDYPPLGRFAVRDMRQTVAVGVIKAVDKKAAGAGKVTKSAQKAQKAK

target: T1, cIAP1 (Homo sapiens, UniProt P61081+Q13490); test: SILAC mass spectrometry screen for cIAP1 substrates with NEDDylator^cIAP1 in apoptotic Jurkat cell lysate; format: biochemical; conditions: Light lysate with NEDDylator^cIAP1, Heavy lysate with Ubc12
T1 construct: cIAP1(ΔR) (residues 1-555); GST (N, cleaved yes); made in house; host or cells: E. coli BL21 (DE3)
Method: Jurkat cells were grown in media containing either light or heavy isotopes of lysine and arginine and induced to undergo apoptosis with STS. Light cell extracts were incubated with the respective catalytic tagging system for each of the two IAPs and the heavy extracts labeled only with the wild-type NEDD8 E2, Ubc12. […] 100 mg ^13C6^15N2 L-Lys.2HCl and 86 mg ^13C6 L-Arg.HCl (Cambridge Isotope) were added to the same amount of medium to generate the “Heavy” medium. Jurkat cells were cultured separately in “Light” or “Heavy” medium for 7 days to allow for thorough isotope incorporation. For IAP substrate identification, 400 million cells were treated with 2 μM STS for 4 hours, harvested, lysed in M-PER mammalian protein extraction buffer (Thermo/Pierce) in the presence of protease inhibitors (100× ProteoBlock cocktail, Fermentas) and mixed with cell lysate prepared from 400 million untreated cells. […] Purified NEDDylated proteins were trypsinized and analyzed with tandem mass spectrometry (LC-MS/MS).
For SILAC experiments, Jurkat cells were cultured separately in “Light” (supplemented with regular Lys and Arg) or “Heavy” (supplemented with ^13C6^15N2 Lys and ^13C6 Arg) medium for 7 days to allow for thorough isotope incorporation. Apoptotic “Light” and “Heavy” cell extracts were prepared individually. The lysates were cleared by spinning and then diluted in 50 mM HEPES pH 7.4, 150 mM NaCl to 5 mg/ml and supplemented with 5 mM ATP, 10 mM MgCl2. Endogenous NEDD8 E1 is cell lysate was used to catalyze the reaction. HB-NEDD8 was added to both lysate at mass ratio 1:500; the catalytic tagging system was added to the “Light” lysate at mass ratio 1:1000. Equal molar of Ubc12 was added to the “Heavy” lysate. […] NEDDylated proteins were separated by one-dimensional SDS-PAGE, and trypsinized for LC-MS/MS analysis.
For liquid chromatography—Tandem mass spectrometry (LC-MS/MS) analysis, the tryptic peptides were first desalted and concentrated with a C18 Ziptip (Millipore). LC-MS/MS was carried out by reverse phase LC interfaced with a LTQ-Orbitrap (ThermoFisher Scientific) hybrid mass spectrometer. A nanoflow HPLC (NanoAcquity UPLC system, Waters Corporation) was equipped with a trap column (180 μm×20 mm, 5 μm SymmetryC18, from Waters) and an analytical column (100 μm×100 mm, 1.7 μm BEH130C18, from Waters). Peptides were eluted over a linear gradient from 2% solvent A (0.1% formic acid in water) to 35% solvent B (0.1% formic acid in acetonitrile) at 350 nL/min over 35 min. MS and MS/MS spectra were acquired in a data-dependent mode with MS spectra acquired in the Orbitrap at 30,000 resolving power and 6 CID MS/MS spectra acquired per MS in the LTQ linear ion trap. Dynamic exclusion was set at 90 seconds to prevent repeated MS/MS on the same precursor ion.
The identified peptides were searched against a random decoy protein database for evaluating the false positive rates. […] The decoy peptides were removed from the data. Protein IDs were assigned only when at least two unique peptides were identified from the same protein. For SILAC experiment, Light/Heavy ratios for the identified peptides were calculated, using ProteinProspector. The media Light/Heavy ratios of all the peptides identified for each protein were used to represent the Light/Heavy ratio of the protein.

T1 sequence (Q13490+P61081 fused): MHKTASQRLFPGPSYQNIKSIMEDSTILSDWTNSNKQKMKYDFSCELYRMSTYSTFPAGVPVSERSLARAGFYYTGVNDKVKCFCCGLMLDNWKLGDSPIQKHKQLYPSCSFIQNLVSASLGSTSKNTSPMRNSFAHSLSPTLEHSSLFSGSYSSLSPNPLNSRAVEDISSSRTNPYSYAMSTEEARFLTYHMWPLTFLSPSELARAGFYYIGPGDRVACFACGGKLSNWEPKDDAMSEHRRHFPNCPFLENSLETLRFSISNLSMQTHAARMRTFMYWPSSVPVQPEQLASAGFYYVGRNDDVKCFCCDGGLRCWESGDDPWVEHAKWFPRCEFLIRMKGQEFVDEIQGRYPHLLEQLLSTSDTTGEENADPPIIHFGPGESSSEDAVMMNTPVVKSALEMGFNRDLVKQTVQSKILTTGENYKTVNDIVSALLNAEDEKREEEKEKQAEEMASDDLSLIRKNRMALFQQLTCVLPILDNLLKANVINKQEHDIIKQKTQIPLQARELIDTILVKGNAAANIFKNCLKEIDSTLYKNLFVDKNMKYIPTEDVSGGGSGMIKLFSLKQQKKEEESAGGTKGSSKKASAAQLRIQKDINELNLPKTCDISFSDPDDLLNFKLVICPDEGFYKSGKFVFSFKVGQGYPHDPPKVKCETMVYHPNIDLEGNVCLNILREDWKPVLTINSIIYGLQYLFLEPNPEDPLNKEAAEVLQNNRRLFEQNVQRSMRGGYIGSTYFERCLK

Molecule | L/H (Light/Heavy ratio)
ELAV-like protein 1: potential cIAP1 substrate | 8.78
Eukaryotic initiation factor 4A-I: potential cIAP1 substrate | 5.31
Glyceraldehyde-3-phosphate dehydrogenase: potential cIAP1 substrate | 5.21
Hemoglobin subunit alpha: potential cIAP1 substrate | 5.22
Heterogeneous nuclear ribonucleoprotein U: potential cIAP1 substrate | 4.15
Isocitrate dehydrogenase [NAD] subunit beta, mitochondrial: potential cIAP1 substrate | 14
Non-POU domain-containing octamer-binding protein: potential cIAP1 substrate | 7.52
TAR DNA-binding protein 43: potential cIAP1 substrate | 26.9
B1 | 6.17
B2 | 8.75
B3 | 8.76
B4 | 22.2
B5 | 20.7
B6 | 6.51
B7 | 5.67
B8 | 4.4
